Data from patent publication US20180118802A1 (published 2018).

B1: LRP2 CR89 (receptor)
chain: not shown
notes: domain: CR89; also called YVWR; not shown: N-terminal hexahistidine and S-peptide of pET30(+)a

Experiments:
RAP d3 [1] = molecular target: T1, RAP d3 (human, UniProt P30533 235-353); test: solid-phase binding assay, CR protein coated, anti-RAP detection
T1 construct: also called wild-type RAP d3
T1 sequence: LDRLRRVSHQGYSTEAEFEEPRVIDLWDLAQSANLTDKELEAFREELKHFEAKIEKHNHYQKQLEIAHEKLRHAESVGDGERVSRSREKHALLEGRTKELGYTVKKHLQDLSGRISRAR
From the text: (§1) Alternatively, the affinity differences between MegaRAP I d3 and MegaRAP1 d3 E270K may have been insufficient to alloW the latter to predominate upon iterative panning. A double revertant, T213S, E270K, had binding behavior that was not distinguishable from MegaRAP1 d3 in our assays. […] The binding behavior of the K251E, E270K double revertant implies a strong dependence of the affinity of MegaRAP1 d3 for LRP2 CR89 on the E251K mutation. […] Therefore, the K256A mutation in MegaRAP1 d3 is a crucial determinant of the ability of this variant to discriminate between the two receptor fragments, exerting its effect by negatively impacting affinity for LRP1 CR3-5 while at the same time improving affinity for LRP2 CR89.

LRP2 CR89 [2] = molecular target: B1; test: as above
Method: (§2) Wells were washed with TBSTC and bound ligands detected with polyclonal anti-RAP (BP41/42, 1:1,000, BioMarin). Excess primary antibody was removed and wells washed before incubation with the secondary antibody, HRP-conjugated goat anti rabbit IgG (Bio-Rad). After washing, TMB substrate solutions (Bio-Rad) were added to detect HRP. Color development was stopped with 1N HCl. Absorption at 450 nm was measured with a microplate spectrophotometer (Molecular Devices). Data were plotted and Kd values derived by non-linear regression with the assumption of single-site binding (GraphPad Prism).
(§3) Next, the binding of RAP d3 and MegaRAP1 d3 proteins to LRP1 CR3-5 and LRP2 CR89 was assessed. […] In all cases, 10 mM EGTA prevented binding of both RAP d3 and MegaRAP1 d3 to CR proteins. Since calcium was the only divalent metal ion present in the binding buffer, this observation is consistent with both RAP d3 and MegaRAP1 d3 binding to calcium-loaded CR pairs. […] Therefore, wild-type RAP d3 and MegaRAP1 d3 have inverted binding preferences for these two receptor fragments.

LRP2 CR89 [3] = molecular target: B1; test: as above; remark: listed apart in the source
From the text: as §1

LRP1 CR3-5 = molecular target: T2, LRP1 CR3-5 (human, UniProt Q07954 852-973); test: as above
T2 construct: range 852-973; not shown: N-terminal hexahistidine and S-peptide of pET30(+)a
Method: as §2, §3

RAP d3 [4] = molecular target: T1, RAP d3; test: as above; remark: listed apart in the source
Method: Solid phase binding assays—Purified, refolded CR protein (1 μg) was bound to Nunc Maxisorp™ 96-well plates in TBS pH 8 supplemented with 5 mM CaCl₂ (TBSC) overnight at 4° C. Wells were washed with TBSC and then blocked with TBSC containing 2% bovine serum albumin (BSA). RAP ligands were then incubated with the immobilized receptor at a range of concentrations for 2 hours in the above blocking buffer supplemented with 0.05% Tween-20 at room temperature. Control wells contained no added ligand. As an additional control, to determine whether the absence of calcium affected binding, 10 mM EGTA was included in the incubation medium for some samples. Wells were washed with TBSTC and bound ligands detected with polyclonal anti-RAP (BP41/42, 1:1,000, BioMarin). Excess primary antibody was removed and wells washed before incubation with the secondary antibody, HRP-conjugated goat anti rabbit IgG (Bio-Rad). After washing, TMB substrate solutions (Bio-Rad) were added to detect HRP. Color development was stopped with 1N HCl. Absorption at 450 nm was measured with a microplate spectrophotometer (Molecular Devices). Data were plotted and Kd values derived by non-linear regression with the assumption of single-site binding (GraphPad Prism).
One premise of this work was that amino acids at A, C, A′ and C′ within the calcium-binding loops of a CR pair were key determinants of binding affinity for RAP and would be similarly important for binding of RAP variants. To test this idea, mutant LRP2 CR89 were prepared in which the native, non-canonical residues at these positions were sequentially substituted with the non-native, canonical residues. As defined above, the A, C, A′, C′ string for LRP2 CR89 is YVWR. Mutants included LRP2 CR89 Y1042W (WVWR), LRP2 CR89 V1047D (YDWR), LRP2 CR89 R1088D (YVWD), LRP2 CR89 V1047D R1088D (YDWD), LRP2 CR89 Y1042W V1047D R1088D (WDWD), LRP2 CR89 Y1042W V1047D (WDWR), LRP2 CR89 Y1042W R1088D (WVWD). Binding to both RAP d3 and MegaRAP1 d3 were measured for each LRP2 CR89 mutant by solid-phase assay.

RAP-GDNF = molecular target: T3, RAP-GDNF (UniProt P30533 35-353; P39905 78-211, limits assumed); test: solid-phase assay, RAP-GDNF coated, serial dilutions of GFRα-1 (FIG. 12)
T3 construct: also called RAP-GDNF fusion
T3 sequence (looked up): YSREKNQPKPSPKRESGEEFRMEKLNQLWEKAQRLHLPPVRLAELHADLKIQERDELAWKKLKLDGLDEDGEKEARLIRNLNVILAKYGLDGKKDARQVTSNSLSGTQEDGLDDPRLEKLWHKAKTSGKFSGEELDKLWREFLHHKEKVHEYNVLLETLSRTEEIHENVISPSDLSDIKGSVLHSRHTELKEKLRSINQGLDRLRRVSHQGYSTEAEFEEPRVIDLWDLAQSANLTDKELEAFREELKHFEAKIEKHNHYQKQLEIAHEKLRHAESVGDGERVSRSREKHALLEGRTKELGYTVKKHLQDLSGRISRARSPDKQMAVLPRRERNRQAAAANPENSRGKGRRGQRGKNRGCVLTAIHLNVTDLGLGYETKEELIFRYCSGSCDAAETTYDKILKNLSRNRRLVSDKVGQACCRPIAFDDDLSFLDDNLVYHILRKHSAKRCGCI

LRP2 CR89, sequence (P98164 1025-1102): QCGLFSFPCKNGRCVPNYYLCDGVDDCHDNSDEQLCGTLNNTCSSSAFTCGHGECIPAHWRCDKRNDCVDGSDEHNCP
T2 sequence (Q07954 852-973, form in doubt): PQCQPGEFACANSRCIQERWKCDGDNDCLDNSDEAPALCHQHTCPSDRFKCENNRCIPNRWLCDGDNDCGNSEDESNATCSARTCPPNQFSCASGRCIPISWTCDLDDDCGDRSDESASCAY

Binder	binding result (LRP2 CR89 [2])	also measured
B1	–	Kd (RAP d3 [1]): > 300 nM
RAP d3 K270E (ligand, not shown: small tags and cut ends, Forward mutant of RAP d3; also called RAP K270E) LDRLRRVSHQGYSTEAEFEEPRVIDLWDLAQSANLTDKELEAFREELKHFEAKIEKHNHYQKQLEIAHEELRHAESVGDGERVSRSREKHALLEGRTKELGYTVKKHLQDLSGRISRAR	no binding	–
MegaRAP1 d3 A256K, E270K (ligand, not shown: small tags and cut ends, Double revertant of MegaRAP1 d3; also called MegaRAP1 A256K, E270K) LDRLRRVSHQGYTTEAKFEEPRVIDLWDLAQSANLTDKELEAFREELKYFKAKIEKHNHYQKQLEIAHEKLRHAESVGDGERVSRSREKHALLEGRTKELGYTVKKHLQDLSGRISRAR	–	fold loss of affinity (LRP2 CR89 [3]): 2 fold
RAP d3 E251K (ligand, not shown: small tags and cut ends, Forward mutant of RAP d3; also called RAP E251K) LDRLRRVSHQGYSTEAEFEEPRVIDLWDLAQSANLTDKELEAFREELKHFKAKIEKHNHYQKQLEIAHEKLRHAESVGDGERVSRSREKHALLEGRTKELGYTVKKHLQDLSGRISRAR	no binding	–
MegaRAP1 d3 E270K (ligand, not shown: small tags and cut ends, Revertant of MegaRAP1 d3; also called MegaRAP1 E270K) LDRLRRVSHQGYTTEAKFEEPRVIDLWDLAQSANLTDKELEAFREELKYFKAKIEAHNHYQKQLEIAHEKLRHAESVGDGERVSRSREKHALLEGRTKELGYTVKKHLQDLSGRISRAR	–	% max (LRP1 CR3-5): 85%
LRP2 CR89 R1088D (receptor, not shown: small tags and cut ends, also called YVWD) not shown	–	binding result (RAP d3 [4]): no binding
LRP2 CR89 V1047D (receptor, not shown: small tags and cut ends, also called YDWR) PTEQCGLFSFPCKNGRCVPNYYLCDGDDDCHDNSDEQLCGTLNNTCSSSAFTCGHGECIPAHWRCDKRNDCVDGSDEHNCPTHA	–	binding result (RAP d3 [4]): no binding
LRP2 CR89 Y1042W (receptor, not shown: small tags and cut ends, also called WVWR) PTEQCGLFSFPCKNGRCVPNYWLCDGVDDCHDNSDEQLCGTLNNTCSSSAFTCGHGECIPAHWRCDKRNDCVDGSDEHNCPTHA	–	binding result (RAP d3 [4]): no binding
MegaRAP1 d3 K251E (ligand, not shown: small tags and cut ends, Revertant of MegaRAP1 d3; also called MegaRAP1 K251E) LDRLRRVSHQGYTTEAKFEEPRVIDLWDLAQSANLTDKELEAFREELKYFEAKIEAHNHYQKQLEIAHEELRHAESVGDGERVSRSREKHALLEGRTKELGYTVKKHLQDLSGRISRAR	no binding	–
RAP d3 H249Y (ligand, not shown: small tags and cut ends, Forward mutant of RAP d3; also called RAP H249Y) LDRLRRVSHQGYSTEAEFEEPRVIDLWDLAQSANLTDKELEAFREELKYFEAKIEKHNHYQKQLEIAHEKLRHAESVGDGERVSRSREKHALLEGRTKELGYTVKKHLQDLSGRISRAR	no binding	–
MegaRAP1 d3 A256K (ligand, not shown: small tags and cut ends, Revertant of MegaRAP1 d3; also called MegaRAP1 A256K) LDRLRRVSHQGYTTEAKFEEPRVIDLWDLAQSANLTDKELEAFREELKYFKAKIEKHNHYQKQLEIAHEELRHAESVGDGERVSRSREKHALLEGRTKELGYTVKKHLQDLSGRISRAR	no binding	–
LRP2 CR89 V1047D R1088D (receptor, not shown: small tags and cut ends, also called YDWD) PTEQCGLFSFPCKNGRCVPNYYLCDGDDDCHDNSDEQLCGTLNNTCSSSAFTCGHGECIPAHWRCDKDNDCVDGSDEHNCPTHA	–	binding result (RAP d3 [4]): no binding
RAP d3 E217K (ligand, not shown: small tags and cut ends, Forward mutant of RAP d3; also called RAP E217K) LDRLRRVSHQGYSTEAKFEEPRVIDLWDLAQSANLTDKELEAFREELKHFEAKIEKHNHYQKQLEIAHEKLRHAESVGDGERVSRSREKHALLEGRTKELGYTVKKHLQDLSGRISRAR	no binding	–
RAP d3 K256A, K270E (ligand, not shown: small tags and cut ends, Forward mutant of RAP d3; also called RAP K256A, K270E) LDRLRRVSHQGYSTEAEFEEPRVIDLWDLAQSANLTDKELEAFREELKHFEAKIEAHNHYQKQLEIAHEELRHAESVGDGERVSRSREKHALLEGRTKELGYTVKKHLQDLSGRISRAR	no binding	–
RAP d3 E251K, K270E (ligand, not shown: small tags and cut ends, Forward mutant of RAP d3; also called RAP E251K, K270E) LDRLRRVSHQGYSTEAEFEEPRVIDLWDLAQSANLTDKELEAFREELKHFKAKIEKHNHYQKQLEIAHEELRHAESVGDGERVSRSREKHALLEGRTKELGYTVKKHLQDLSGRISRAR	no binding	–
GFRα-1 (receptor) DRLDCVKASDQCLKEQSCSTKYRTLRQCVAGKETNFSLASGLEAKDECRSAMEALKQKSLYNCRCKRGMKKEKNCLRIYWSMYQSLQGNDLLEDSPYEPVNSRLSDIFRVVPFISDVFQQVEHIPKGNNCLDAAKACNLDDICKKYRSAYITPCTTSVSNDVCNRRKCHKALRQFFDKVPAKHSYGMLFCSCRDIACTERRRQTIVPVCSYEEREKPNCLNLQDSCKTNYICRSRLADFFTNCQPESRSVSSCLKENYADCLLAYSGLIGTVMTPNYIDSSSLSVAPWCDCSNSGNDLEECLKFLNFFKDNTCLKNAIQAFGNGSDVTVWQPAFPVQTTTATTTTALRVKNKPLGPAGSENEIPTHVLPPCANLQAQKLKSNVSGNTHLCISNGNYEKEGLGASS	–	Kd (RAP-GDNF): ~5 ng/mL
